Laboratory results published in article PMC11900858.

Legend:
FcRn (mouse) = FcRn (mouse) (UniProt Q61559)
FcγRI (mouse) = FcγRI (mouse) (UniProt P26151)
FcγRIIB (mouse) = FcγRIIB (mouse) (UniProt P08101)
FcγRIII (mouse) = FcγRIII (mouse) (UniProt P08508)
FcαμR (mouse) = FcαμR (mouse) (UniProt Q2TB54)
FcμR (mouse) = FcμR (mouse) (UniProt A1KXC4)
Chain of UniProt A1KXC4 (A1KXC4 17-422): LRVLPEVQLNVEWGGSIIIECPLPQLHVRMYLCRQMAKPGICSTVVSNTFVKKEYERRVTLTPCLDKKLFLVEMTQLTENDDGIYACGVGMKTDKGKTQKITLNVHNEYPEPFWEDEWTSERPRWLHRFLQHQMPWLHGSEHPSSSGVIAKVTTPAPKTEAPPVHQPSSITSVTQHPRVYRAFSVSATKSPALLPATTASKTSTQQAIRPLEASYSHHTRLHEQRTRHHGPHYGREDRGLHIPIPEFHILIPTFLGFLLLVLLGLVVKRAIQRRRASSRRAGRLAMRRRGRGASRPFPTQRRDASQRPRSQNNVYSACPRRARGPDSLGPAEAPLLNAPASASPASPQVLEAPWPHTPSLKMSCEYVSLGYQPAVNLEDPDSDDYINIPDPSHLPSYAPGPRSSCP

Chain of UniProt Q61559 (Q61559 22-365): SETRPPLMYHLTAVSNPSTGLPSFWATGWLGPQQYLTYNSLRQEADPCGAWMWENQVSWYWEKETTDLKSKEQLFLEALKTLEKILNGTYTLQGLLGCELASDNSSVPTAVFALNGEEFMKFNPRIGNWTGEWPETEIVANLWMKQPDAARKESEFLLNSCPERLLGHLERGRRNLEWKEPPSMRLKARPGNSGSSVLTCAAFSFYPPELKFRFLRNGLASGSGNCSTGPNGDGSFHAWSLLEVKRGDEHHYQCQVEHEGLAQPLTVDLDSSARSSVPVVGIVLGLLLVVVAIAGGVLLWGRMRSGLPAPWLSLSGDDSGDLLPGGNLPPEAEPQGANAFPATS
Chain of UniProt Q2TB54 (Q2TB54 36-535): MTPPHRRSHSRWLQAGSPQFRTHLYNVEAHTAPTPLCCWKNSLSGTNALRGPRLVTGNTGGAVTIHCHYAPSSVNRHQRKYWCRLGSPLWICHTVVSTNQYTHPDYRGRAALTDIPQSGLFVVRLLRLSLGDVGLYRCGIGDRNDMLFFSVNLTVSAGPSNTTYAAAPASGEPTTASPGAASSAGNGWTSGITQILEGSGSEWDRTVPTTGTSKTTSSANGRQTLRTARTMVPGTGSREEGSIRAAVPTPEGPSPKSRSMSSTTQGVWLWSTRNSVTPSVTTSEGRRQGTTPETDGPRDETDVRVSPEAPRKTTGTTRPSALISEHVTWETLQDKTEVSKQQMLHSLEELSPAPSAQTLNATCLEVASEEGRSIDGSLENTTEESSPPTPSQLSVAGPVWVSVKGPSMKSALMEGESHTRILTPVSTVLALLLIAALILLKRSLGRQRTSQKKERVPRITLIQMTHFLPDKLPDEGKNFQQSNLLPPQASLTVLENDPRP
Chain of UniProt P08101 (P08101 30-330): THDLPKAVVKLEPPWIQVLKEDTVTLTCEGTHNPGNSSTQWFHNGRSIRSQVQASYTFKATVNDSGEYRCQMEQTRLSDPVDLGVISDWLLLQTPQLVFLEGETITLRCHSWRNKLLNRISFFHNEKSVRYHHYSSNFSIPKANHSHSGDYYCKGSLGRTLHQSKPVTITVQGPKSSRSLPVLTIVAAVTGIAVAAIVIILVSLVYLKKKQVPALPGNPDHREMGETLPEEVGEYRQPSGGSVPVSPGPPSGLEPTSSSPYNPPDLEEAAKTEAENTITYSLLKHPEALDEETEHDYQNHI
Chain of UniProt P08508 (P08508 31-261): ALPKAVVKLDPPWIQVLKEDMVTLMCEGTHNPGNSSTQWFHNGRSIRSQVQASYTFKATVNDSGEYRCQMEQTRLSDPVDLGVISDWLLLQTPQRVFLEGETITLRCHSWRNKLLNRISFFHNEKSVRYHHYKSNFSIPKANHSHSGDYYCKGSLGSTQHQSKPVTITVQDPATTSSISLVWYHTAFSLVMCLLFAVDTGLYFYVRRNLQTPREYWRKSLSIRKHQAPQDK
Chain of UniProt P26151 (P26151 25-404): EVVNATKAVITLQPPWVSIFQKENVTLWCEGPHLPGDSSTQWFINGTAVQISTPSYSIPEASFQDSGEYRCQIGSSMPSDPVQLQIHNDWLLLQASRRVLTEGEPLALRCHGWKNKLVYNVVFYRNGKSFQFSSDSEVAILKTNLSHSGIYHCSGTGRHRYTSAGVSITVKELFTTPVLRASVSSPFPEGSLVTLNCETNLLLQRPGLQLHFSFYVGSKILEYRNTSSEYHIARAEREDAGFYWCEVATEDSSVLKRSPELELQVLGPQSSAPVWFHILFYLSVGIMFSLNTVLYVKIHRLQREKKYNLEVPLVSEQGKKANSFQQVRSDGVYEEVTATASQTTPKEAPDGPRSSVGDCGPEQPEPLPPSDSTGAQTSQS

T15 IgG3 (murine monoclonal anti-phosphocholine antibody of the T15 idiotype, IgG3 form)
< 5%: adhesion of T15 IgG3-opsonized Spn6A pneumococci to CHO cells stably expressing the receptor (MOI 1, T15 antibody 50 μg/ml); no notable increase; anti-capsule antibody control 85% binding (FcRn (mouse)) | adhesion of T15 IgG3-opsonized Spn6A pneumococci to CHO cells stably expressing the receptor (MOI 1, T15 antibody 50 μg/ml); no notable increase; anti-capsule antibody control 85% binding (FcγRI (mouse)) | adhesion of T15 IgG3-opsonized Spn6A pneumococci to CHO cells stably expressing the receptor (MOI 1, T15 antibody 50 μg/ml); no notable increase; anti-capsule antibody control 85% binding (FcγRIIB (mouse)) | adhesion of T15 IgG3-opsonized Spn6A pneumococci to CHO cells stably expressing the receptor (MOI 1, T15 antibody 50 μg/ml); no notable increase; anti-capsule antibody control 85% binding (FcγRIII (mouse)) | adhesion of T15 IgG3-opsonized Spn6A pneumococci to CHO cells stably expressing the receptor (MOI 1, T15 antibody 50 μg/ml); no notable increase; anti-capsule antibody control 85% binding (FcγRIV (mouse))

T15 IgM (murine monoclonal anti-phosphocholine antibody of the T15 idiotype, IgM form) (from UniProt P01592 22-159)
< 5%: adhesion of T15 IgM-opsonized Spn6A pneumococci to CHO cells stably expressing the receptor (MOI 1, T15 antibody 50 μg/ml); no notable increase; anti-capsule antibody control 85% binding (FcαμR (mouse)) | adhesion of T15 IgM-opsonized Spn6A pneumococci to CHO cells stably expressing the receptor (MOI 1, T15 antibody 50 μg/ml); no notable increase; anti-capsule antibody control 85% binding (FcμR (mouse))
